Measurements from paper PMC12412652 (2025).

Molecular target: T1, BFL-1 (UniProt Q16548 1-175, biotin)
T1 chain: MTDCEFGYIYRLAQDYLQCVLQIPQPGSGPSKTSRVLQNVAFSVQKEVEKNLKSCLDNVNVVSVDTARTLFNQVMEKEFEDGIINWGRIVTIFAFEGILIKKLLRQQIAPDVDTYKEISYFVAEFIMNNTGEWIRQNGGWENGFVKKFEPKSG
Test: BLI

| Binder | Kd [nM] |
| --- | --- |
| BAK-CDP02 (BAK-targeting computationally designed protein 02 of 11) (designed binder) GADPKKVLDKAKDQAENVVRKLKQILEELYKEARKLDLTQDEKIELILRYIAAMLAAIGDILEAIRQAKEEADKLKKAGLVNSQQLDELKRRLEELRKEAARKARDYAEEFRNKLEYG | 10 |
| αBAK2 (designed binder) GADPKKVLDKADDQMENVVVTLKQELEELAKERRKLDLTQSEKIELKLRYIVAHLAAIGDIEEAIREAKEEADKLKKAGLVNSQQFAEFKRRLEELHKEADRKRRDYAEEFRNKLEYG | 960 |
| αBAK1 (designed binder) GADPKKVLDKAKDQMENVVRKLKQILEELAKEARKLDLTQDEKIELILRYIVAHLAAIGDIEEAIREAKEEADKLKKAGLVNSQQLDEFKRRLEELHKEADRKRRDYAEEFRNKLEYG | 1700 |

Molecular target: T2, MCL-1 (Homo sapiens)
T2 chain: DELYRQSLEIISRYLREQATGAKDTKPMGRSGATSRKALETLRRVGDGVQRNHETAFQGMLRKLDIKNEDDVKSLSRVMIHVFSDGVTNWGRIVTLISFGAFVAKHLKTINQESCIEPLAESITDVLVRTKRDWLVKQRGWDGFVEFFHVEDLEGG
Test: BLI

| Binder | Kd [nM] |
| --- | --- |
| BAX-CDP01 (BAX-targeting computationally designed protein 01) (designed binder, biotinylated for BLI (Avi tag). Limits not given; the conventional BCL-2-fold core 172-327 is taken) GADPKKVLDKARDQAENRVRELAQKLEELYKEARKLDLTQEERRKLEKRYKAAMEEAIKDIREAIRQAKQEADKLKKAGLVNSQQLKELKQRLNELAIAAALRAIGDAIEFRRKLQYG | 10 |
| αBAX2 (designed binder, biotinylated for BLI (Avi tag). Limits not given; the conventional BCL-2-fold core 172-327 is taken) GADPKKVLDKARDQAENRVRELRQKLTELYKEARKLDLTQEERRKLIKRYKAAMNEAIKDIHEAIEQAKEEADKLKDAGLVNEQQLKELKQRLNEKALAAAFRASGDTWHARRKLQYG | 18000 |
| αBAX1 (designed binder, biotinylated for BLI (Avi tag). Limits not given; the conventional BCL-2-fold core 172-327 is taken) GADPKKVLDKARDQAENRVRELAQKLEELYKEARKLDLTQEERRKLEKRYKAAMEEAIKDIHEAIEQAKEEADKLKDAGLVNEQQLKELKQRLNELAIAAAFRASGDTIEFRRKLQYG | 600 |
| BAK-CDP02 (BAK-targeting computationally designed protein 02 of 11) (designed binder, biotinylated for BLI (Avi tag). Limits not given; the conventional BCL-2-fold core 172-327 is taken) GADPKKVLDKAKDQAENVVRKLKQILEELYKEARKLDLTQDEKIELILRYIAAMLAAIGDILEAIRQAKEEADKLKKAGLVNSQQLDELKRRLEELRKEAARKARDYAEEFRNKLEYG | 5.4 |
| αBAK2 (designed binder, biotinylated for BLI (Avi tag). Limits not given; the conventional BCL-2-fold core 172-327 is taken) GADPKKVLDKADDQMENVVVTLKQELEELAKERRKLDLTQSEKIELKLRYIVAHLAAIGDIEEAIREAKEEADKLKKAGLVNSQQFAEFKRRLEELHKEADRKRRDYAEEFRNKLEYG | 310 |
| αBAK1 (designed binder, biotinylated for BLI (Avi tag). Limits not given; the conventional BCL-2-fold core 172-327 is taken) GADPKKVLDKAKDQMENVVRKLKQILEELAKEARKLDLTQDEKIELILRYIVAHLAAIGDIEEAIREAKEEADKLKKAGLVNSQQLDEFKRRLEELHKEADRKRRDYAEEFRNKLEYG | 500 |

Molecular target: BCL-2 (UniProt P10415 1-239, biotin)
Sequence (P10415 1-207): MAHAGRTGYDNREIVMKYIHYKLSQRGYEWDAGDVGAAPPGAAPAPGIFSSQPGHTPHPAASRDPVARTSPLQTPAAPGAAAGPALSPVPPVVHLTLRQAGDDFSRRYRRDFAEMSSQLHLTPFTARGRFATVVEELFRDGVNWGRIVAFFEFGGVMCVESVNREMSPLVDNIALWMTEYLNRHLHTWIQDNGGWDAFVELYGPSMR
Test: BLI

| Binder | Kd [nM] |
| --- | --- |
| BAK-CDP02 (BAK-targeting computationally designed protein 02 of 11) (designed binder) GADPKKVLDKAKDQAENVVRKLKQILEELYKEARKLDLTQDEKIELILRYIAAMLAAIGDILEAIRQAKEEADKLKKAGLVNSQQLDELKRRLEELRKEAARKARDYAEEFRNKLEYG | 130 |
| αBAK2 (designed binder) GADPKKVLDKADDQMENVVVTLKQELEELAKERRKLDLTQSEKIELKLRYIVAHLAAIGDIEEAIREAKEEADKLKKAGLVNSQQFAEFKRRLEELHKEADRKRRDYAEEFRNKLEYG | 133 |

Molecular target: T3, BCL-B (Homo sapiens)
T3 chain: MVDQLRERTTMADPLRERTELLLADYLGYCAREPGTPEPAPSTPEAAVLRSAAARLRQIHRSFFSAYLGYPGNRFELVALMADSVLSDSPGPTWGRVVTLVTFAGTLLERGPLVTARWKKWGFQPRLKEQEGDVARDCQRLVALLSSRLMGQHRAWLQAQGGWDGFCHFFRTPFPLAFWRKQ
Test: BLI

| Binder | Kd [nM] |
| --- | --- |
| BAX-CDP01 (BAX-targeting computationally designed protein 01) (designed binder, biotinylated for BLI (Avi tag). Limits not given; the soluble form lacking the transmembrane segment (183-200) is taken by convention) GADPKKVLDKARDQAENRVRELAQKLEELYKEARKLDLTQEERRKLEKRYKAAMEEAIKDIREAIRQAKQEADKLKKAGLVNSQQLKELKQRLNELAIAAALRAIGDAIEFRRKLQYG | 2000 |
| αBAX2 (designed binder, biotinylated for BLI (Avi tag). Limits not given; the soluble form lacking the transmembrane segment (183-200) is taken by convention) GADPKKVLDKARDQAENRVRELRQKLTELYKEARKLDLTQEERRKLIKRYKAAMNEAIKDIHEAIEQAKEEADKLKDAGLVNEQQLKELKQRLNEKALAAAFRASGDTWHARRKLQYG | 80000 |
| αBAX1 (designed binder, biotinylated for BLI (Avi tag). Limits not given; the soluble form lacking the transmembrane segment (183-200) is taken by convention) GADPKKVLDKARDQAENRVRELAQKLEELYKEARKLDLTQEERRKLEKRYKAAMEEAIKDIHEAIEQAKEEADKLKDAGLVNEQQLKELKQRLNELAIAAAFRASGDTIEFRRKLQYG | > 20000 |
| BAK-CDP02 (BAK-targeting computationally designed protein 02 of 11) (designed binder, biotinylated for BLI (Avi tag). Limits not given; the soluble form lacking the transmembrane segment (183-200) is taken by convention) GADPKKVLDKAKDQAENVVRKLKQILEELYKEARKLDLTQDEKIELILRYIAAMLAAIGDILEAIRQAKEEADKLKKAGLVNSQQLDELKRRLEELRKEAARKARDYAEEFRNKLEYG | 200 |
| αBAK2 (designed binder, biotinylated for BLI (Avi tag). Limits not given; the soluble form lacking the transmembrane segment (183-200) is taken by convention) GADPKKVLDKADDQMENVVVTLKQELEELAKERRKLDLTQSEKIELKLRYIVAHLAAIGDIEEAIREAKEEADKLKKAGLVNSQQFAEFKRRLEELHKEADRKRRDYAEEFRNKLEYG | 3000 |
| αBAK1 (designed binder, biotinylated for BLI (Avi tag). Limits not given; the soluble form lacking the transmembrane segment (183-200) is taken by convention) GADPKKVLDKAKDQMENVVRKLKQILEELAKEARKLDLTQDEKIELILRYIVAHLAAIGDIEEAIREAKEEADKLKKAGLVNSQQLDEFKRRLEELHKEADRKRRDYAEEFRNKLEYG | 12000 |

Molecular target: BCL-XL (Homo sapiens)
Sequence (chain, as listed by the source): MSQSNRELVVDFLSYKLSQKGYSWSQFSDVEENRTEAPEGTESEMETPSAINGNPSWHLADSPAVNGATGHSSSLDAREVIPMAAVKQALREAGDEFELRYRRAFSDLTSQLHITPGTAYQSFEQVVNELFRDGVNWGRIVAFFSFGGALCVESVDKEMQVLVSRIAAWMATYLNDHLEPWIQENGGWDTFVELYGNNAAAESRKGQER
Test: BLI

| Binder | Kd [nM] |
| --- | --- |
| αBAX1 (designed binder, biotinylated for BLI (Avi tag). Limits not given; the soluble form lacking the transmembrane segment (210-226) is taken by convention. Any loop deletion is not stated) GADPKKVLDKARDQAENRVRELAQKLEELYKEARKLDLTQEERRKLEKRYKAAMEEAIKDIHEAIEQAKEEADKLKDAGLVNEQQLKELKQRLNELAIAAAFRASGDTIEFRRKLQYG | 510 |
| αBAX2 (designed binder, biotinylated for BLI (Avi tag). Limits not given; the soluble form lacking the transmembrane segment (210-226) is taken by convention. Any loop deletion is not stated) GADPKKVLDKARDQAENRVRELRQKLTELYKEARKLDLTQEERRKLIKRYKAAMNEAIKDIHEAIEQAKEEADKLKDAGLVNEQQLKELKQRLNEKALAAAFRASGDTWHARRKLQYG | 1090 |
| BAX-CDP01 (BAX-targeting computationally designed protein 01) (designed binder, biotinylated for BLI (Avi tag). Limits not given; the soluble form lacking the transmembrane segment (210-226) is taken by convention. Any loop deletion is not stated) GADPKKVLDKARDQAENRVRELAQKLEELYKEARKLDLTQEERRKLEKRYKAAMEEAIKDIREAIRQAKQEADKLKKAGLVNSQQLKELKQRLNELAIAAALRAIGDAIEFRRKLQYG | 38 |
| BAK-CDP02 (BAK-targeting computationally designed protein 02 of 11) (designed binder, biotinylated for BLI (Avi tag). Limits not given; the soluble form lacking the transmembrane segment (210-226) is taken by convention. Any loop deletion is not stated) GADPKKVLDKAKDQAENVVRKLKQILEELYKEARKLDLTQDEKIELILRYIAAMLAAIGDILEAIRQAKEEADKLKKAGLVNSQQLDELKRRLEELRKEAARKARDYAEEFRNKLEYG | 30000 |
| αBAK2 (designed binder, biotinylated for BLI (Avi tag). Limits not given; the soluble form lacking the transmembrane segment (210-226) is taken by convention. Any loop deletion is not stated) GADPKKVLDKADDQMENVVVTLKQELEELAKERRKLDLTQSEKIELKLRYIVAHLAAIGDIEEAIREAKEEADKLKKAGLVNSQQFAEFKRRLEELHKEADRKRRDYAEEFRNKLEYG | 5700 |
| αBAK1 (designed binder, biotinylated for BLI (Avi tag). Limits not given; the soluble form lacking the transmembrane segment (210-226) is taken by convention. Any loop deletion is not stated) GADPKKVLDKAKDQMENVVRKLKQILEELAKEARKLDLTQDEKIELILRYIVAHLAAIGDIEEAIREAKEEADKLKKAGLVNSQQLDEFKRRLEELHKEADRKRRDYAEEFRNKLEYG | 100000 |

Molecular target: T4, BCL-W (Homo sapiens)
T4 chain: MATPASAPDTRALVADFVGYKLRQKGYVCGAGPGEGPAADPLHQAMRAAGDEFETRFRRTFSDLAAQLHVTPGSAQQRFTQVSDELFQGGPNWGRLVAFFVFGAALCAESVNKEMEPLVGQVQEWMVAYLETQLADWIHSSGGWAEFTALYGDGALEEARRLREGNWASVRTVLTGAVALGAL
Test: BLI

| Binder | Kd [nM] |
| --- | --- |
| αBAX1 (designed binder, biotinylated for BLI (Avi tag). Limits not printed in the text (constructs as in cited earlier work); the soluble form lacking the C-terminal tail is taken by convention. Any solubility mutations are not stated) GADPKKVLDKARDQAENRVRELAQKLEELYKEARKLDLTQEERRKLEKRYKAAMEEAIKDIHEAIEQAKEEADKLKDAGLVNEQQLKELKQRLNELAIAAAFRASGDTIEFRRKLQYG | 300000 |
| αBAX2 (designed binder, biotinylated for BLI (Avi tag). Limits not printed in the text (constructs as in cited earlier work); the soluble form lacking the C-terminal tail is taken by convention. Any solubility mutations are not stated) GADPKKVLDKARDQAENRVRELRQKLTELYKEARKLDLTQEERRKLIKRYKAAMNEAIKDIHEAIEQAKEEADKLKDAGLVNEQQLKELKQRLNEKALAAAFRASGDTWHARRKLQYG | 30000 |
| BAX-CDP01 (BAX-targeting computationally designed protein 01) (designed binder, biotinylated for BLI (Avi tag). Limits not printed in the text (constructs as in cited earlier work); the soluble form lacking the C-terminal tail is taken by convention. Any solubility mutations are not stated) GADPKKVLDKARDQAENRVRELAQKLEELYKEARKLDLTQEERRKLEKRYKAAMEEAIKDIREAIRQAKQEADKLKKAGLVNSQQLKELKQRLNELAIAAALRAIGDAIEFRRKLQYG | 6000 |
| BAK-CDP02 (BAK-targeting computationally designed protein 02 of 11) (designed binder, biotinylated for BLI (Avi tag). Limits not printed in the text (constructs as in cited earlier work); the soluble form lacking the C-terminal tail is taken by convention. Any solubility mutations are not stated) GADPKKVLDKAKDQAENVVRKLKQILEELYKEARKLDLTQDEKIELILRYIAAMLAAIGDILEAIRQAKEEADKLKKAGLVNSQQLDELKRRLEELRKEAARKARDYAEEFRNKLEYG | 800 |
| αBAK1 (designed binder, biotinylated for BLI (Avi tag). Limits not printed in the text (constructs as in cited earlier work); the soluble form lacking the C-terminal tail is taken by convention. Any solubility mutations are not stated) GADPKKVLDKAKDQMENVVRKLKQILEELAKEARKLDLTQDEKIELILRYIVAHLAAIGDIEEAIREAKEEADKLKKAGLVNSQQLDEFKRRLEELHKEADRKRRDYAEEFRNKLEYG | 9550 |
| αBAK2 (designed binder, biotinylated for BLI (Avi tag). Limits not printed in the text (constructs as in cited earlier work); the soluble form lacking the C-terminal tail is taken by convention. Any solubility mutations are not stated) GADPKKVLDKADDQMENVVVTLKQELEELAKERRKLDLTQSEKIELKLRYIVAHLAAIGDIEEAIREAKEEADKLKKAGLVNSQQFAEFKRRLEELHKEADRKRRDYAEEFRNKLEYG | 5000 |

Molecular target: MBP-BAX 1-166 C62S C126S, biotinylated (Avi tag, 6-histidine tag) (human, UniProt Q07812 1-166, C62S | C126S, biotin on the Avi tag (enzymatic, BirA))
Sequence (Q07812 1-166 C62S/C126S): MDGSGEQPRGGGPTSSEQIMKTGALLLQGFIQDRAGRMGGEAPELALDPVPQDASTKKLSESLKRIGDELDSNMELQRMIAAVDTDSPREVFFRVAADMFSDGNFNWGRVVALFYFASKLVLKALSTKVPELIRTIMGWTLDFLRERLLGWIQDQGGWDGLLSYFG
Test: BLI

| Binder | Kd [nM] |
| --- | --- |
| αBAK2 (designed binder) GADPKKVLDKADDQMENVVVTLKQELEELAKERRKLDLTQSEKIELKLRYIVAHLAAIGDIEEAIREAKEEADKLKKAGLVNSQQFAEFKRRLEELHKEADRKRRDYAEEFRNKLEYG | > 9000 |
| αBAK1 (designed binder) GADPKKVLDKAKDQMENVVRKLKQILEELAKEARKLDLTQDEKIELILRYIVAHLAAIGDIEEAIREAKEEADKLKKAGLVNSQQLDEFKRRLEELHKEADRKRRDYAEEFRNKLEYG | 10000 |
